Reference: patent US20190276873A1

Key:
Assay in all cases: cell-based or functional assay
[1] = target: Sensor 3: NNano-hVAMP1-CNano (human)
[2] = target: In vivo assay construct: Nnano(1-159)-Firefly(Full length)-GGGGS-p25(FullLength)-Cnano(160-170) (Photinus pyralis; human)
[3] = target: Sensor 1: NNano-SV2C-p25-CNano (human)
[4] = target: Sensor 2: NNano-p25-CNano (human)

Sequence of In vivo assay construct: Nnano(1-159)-Firefly(Full length)-GGGGS-p25(FullLength)-Cnano(160-170) (Photinus pyralis; human) (P08659 other isoform, or with tags, fused parts or gaps): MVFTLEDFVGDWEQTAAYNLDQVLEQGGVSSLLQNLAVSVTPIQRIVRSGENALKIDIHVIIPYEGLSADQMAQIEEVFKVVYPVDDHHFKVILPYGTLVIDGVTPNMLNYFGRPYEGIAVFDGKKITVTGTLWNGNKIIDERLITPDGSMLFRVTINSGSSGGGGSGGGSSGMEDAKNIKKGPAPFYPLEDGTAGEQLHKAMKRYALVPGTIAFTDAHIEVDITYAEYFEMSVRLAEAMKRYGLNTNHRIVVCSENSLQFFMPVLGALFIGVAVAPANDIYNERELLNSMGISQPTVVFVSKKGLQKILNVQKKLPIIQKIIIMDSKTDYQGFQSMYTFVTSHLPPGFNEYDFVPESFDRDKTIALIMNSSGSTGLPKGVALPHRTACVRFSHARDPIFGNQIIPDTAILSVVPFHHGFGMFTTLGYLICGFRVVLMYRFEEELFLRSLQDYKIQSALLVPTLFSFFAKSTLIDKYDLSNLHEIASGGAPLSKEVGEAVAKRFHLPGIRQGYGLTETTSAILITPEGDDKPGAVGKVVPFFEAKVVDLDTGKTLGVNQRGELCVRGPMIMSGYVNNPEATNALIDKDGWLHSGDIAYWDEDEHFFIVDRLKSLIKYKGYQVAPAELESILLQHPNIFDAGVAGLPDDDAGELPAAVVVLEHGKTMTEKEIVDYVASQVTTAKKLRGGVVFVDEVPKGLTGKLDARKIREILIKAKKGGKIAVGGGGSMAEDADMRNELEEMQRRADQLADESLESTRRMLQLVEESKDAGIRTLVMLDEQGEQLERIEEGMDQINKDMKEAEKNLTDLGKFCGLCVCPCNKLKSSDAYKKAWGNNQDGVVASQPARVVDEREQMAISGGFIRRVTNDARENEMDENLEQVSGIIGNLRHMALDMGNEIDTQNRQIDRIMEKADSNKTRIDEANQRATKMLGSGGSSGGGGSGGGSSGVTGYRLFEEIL

## Botulinum neurotoxin B (BoNT/B) (from UniProt P10844 2-1291) (enzyme)
[1]
  EC50 (percentage of luminescence of NANOLUC luciferase, after 4 h at 37 C): 75.7 pM
  EC50 (percentage of luminescence of NANOLUC luciferase, after 24 h at 37 C): 3.9 pM

## Botulinum neurotoxin A (BoNT/A) (from UniProt P0DPI0 2-1296) (enzyme)
[2]
  EC50 (ratio NANOLUC/Firefly in lysates of neurons, 48 h after toxin): 2.9 pM
[3]
  EC50 (percentage of luminescence of NANOLUC luciferase, after 4 h at 37 C): 9.73 pM
  EC50 (percentage of luminescence of NANOLUC luciferase, after 24 h at 37 C): 7.86 pM
  fold sensitivity (EC50) against the sensor without SV2C: 5 fold
[4]
  EC50 (percentage of luminescence of NANOLUC luciferase, after 4 h at 37 C): 48.3 pM
  EC50 (percentage of luminescence of NANOLUC luciferase, after 24 h at 37 C): 35.9 pM
